Entries after “also recorded” stand apart in the source; their conditions may differ.
Legend:
[1] = molecular target: T1, HMGB1 (Homo sapiens, UniProt P09429); assay: Precision cut lung slice (PCLS) immunofluorescence; assay type: cell-based; design: tissue National Disease Research Interchange (NDRI); host or cells: human precision cut lung slices; details: PCLS from human donors
T1 sequence (P09429 1-215): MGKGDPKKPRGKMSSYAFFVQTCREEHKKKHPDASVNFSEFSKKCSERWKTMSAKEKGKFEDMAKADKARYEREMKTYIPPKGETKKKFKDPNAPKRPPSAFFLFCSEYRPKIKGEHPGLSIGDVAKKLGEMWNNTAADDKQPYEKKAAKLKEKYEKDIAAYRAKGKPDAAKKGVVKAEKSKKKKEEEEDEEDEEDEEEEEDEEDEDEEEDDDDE
Protocol: PCLS were obtained and prepared as described (Cooper et al. (2008) J. Allergy Clin. Immunol., 122:734-740; Koziol-White et al. (2011) Expert Rev. Respir. Med., 5:767-777). De-identified human lung tissue from donors was obtained from the National Disease Research Interchange (NDRI), Philadelphia, Pa. Samples were infected with 10^8 pfu of Ad5 per slice or 10^9 GC of rAd VII-GFP for 24 hours. Samples were fixed in 4% PFA at room temperature for 15 minutes and washed three times in PBS. Samples were permiabilized with 0.5% Triton X and washed twice more in PBS. Samples were then incubated with 3% BSA and 0.03% Triton X in PBS for 1 hour to block. Primary antibodies (DBP or HMGB1) were incubated in the same buffer for 1 hour and then samples were washed three times in PBS with 3% BSA, incubated with secondary antibodies and DAPI for 1 hour, and washed three more times. Whole slices were mounted on slides with mounting solution and imaged by confocal microscopy.

[2] = molecular target: T1, HMGB1; assay: Release assay of HMGB1 in THP-1 cells; assay type: cell-based; design: endogenous in cells; details: PMA-treated THP-1 cells, LPS plus nigericin
Protocol: THP-1 cells were seeded at a density of 2×10^5 cells per well in a 24-well plate, and stimulated into macrophage-like cells by addition of 10 ng/mL PMA for 48 hours. Cells were washed in PBS and transduced with recombinant adenovirus vectors expressing only GFP or protein VII-GFP such that >90% of cells were GFP positive. At 48 hours post transduction, cells were washed and 200 μL of serum free RPMI was added. To stimulate the inflammasome, LPS (Sigma-Aldrich L2880) with a final concentration of 0.5 μg/mL was added to wells and incubated for 2 hours, then nigericin (Sigma-Aldrich N7143) was added with a final concentration of 10 μM for 1 hour. Supernatants were collected and proteins precipitated overnight at 4° C. with a final concentration of 20% trichloroacetic acid (Sigma), washed with acetone, dried, and resuspended in 1×sample buffer with reducing agent (Invitrogen). For ELISA analysis, supernatants were harvested directly and HMGB1 content was detected by the manufacturer's instructions (Chondrex 6010). Cells were also harvested by the addition of 1×sample buffer with reducing agent (Invitrogen) and boiled. Supernatants and lysates were analyzed together by western blot.

[3] = molecular target: T1, HMGB1; assay: Co-immunoprecipitation of HMGB1 with protein VII-HA in A549 cells; assay type: cell-based; design: endogenous in cells; host or cells: A549; details: A549 cells induced 4 days
Protocol: A549 cells were induced to express protein VII with doxycycline for four days as described above. Approximately 4×10^7 cells were harvested and pelleted for each immunoprecipitation reaction. Cell pellets were resuspended in 500 μl of IC wash buffer with protease inhibitors (20 mM HEPES pH 7.9, 110 mM KOAc, 2 mM MgCl2, 150 mM NaCl, 0.1% Tween-20, 0.1% Triton X) and incubated on ice for 10 minutes with intermittent vortexing to disrupt cells. Samples were then incubated on ice for 1 hour with 5 μl of benzonase (Millipore) added to each sample to digest DNA to ˜150 bp, which was confirmed by DNA isolation and agarose gel analysis. Samples were then sonicated in a Diagenode Bioruptre for 30 seconds on and 30 seconds off for five rounds at 4° C. and centrifuged at 14,000 g for 15 minutes at 4° C. Supernatants were then incubated rotating for 1 hour at 4° C. with 30 μl of HA-conjugated magnetic beads (Thermo Scientific) and washed three times for five minutes in IC buffer. Isolated proteins were eluted with 100 μl of 2 mg/ml HA peptide (Thermo Scientific) for 20 minutes rotating at 37° C. and separated on and SDS-PAGE gel. For protein separation by SDS-PAGE the NuPAGE IDE System was used (NuPAGE Novex 4-12% bis-tris 1.0 mm gels, Invitrogen, USA). Uninduced cells were used as a negative control. […]

[4] = tested on: nucleosomes; assay: Nucleosome in vitro binding and MNase digestion assays
Protocol: Gel shift and MNase digestion assays were carried out as described (Falk et al. (2015) Science 348:699-703; Hasson et al. (2013) Nat. Struct. Mol. Biol., 20:687-695; Sekulic et al. (2010) Nature 467:347-351). Briefly, nucleosomes were reconstituted by incubating purified recombinant histones with ‘601’ DNA of either 195 or 147 bp over a series of dialysis. Recombinant protein VII-His was then combined with nucleosomes at various molar ratios, incubated at room temperature for 15 minutes, and analyzed by native gel electrophoresis. Complexes were also digested with MNase (Affymetrix) by addition of 1 unit per μg of DNA for 147 bp nucleosome experiments and 0.1 unit per μg of DNA for 195 bp nucleosome experiments, incubated at 22° C. for varying amounts of time followed by the addition of EGTA and guanidine thiocyanate to stop the reaction. The DNA fragments were then purified using a MinElute PCR purification kit (Qiagen) and analyzed on an Agilent 2100 Bioanalyzer as described (Falk et al. (2015) Science 348:699-703).

B1: protein VII: mature protein VII of human adenovirus type 5 (SEQ ID NO:1), expressed in cells, mostly with C-terminal HA tag (protein)
chain: AKKRSDQHPVRVRGHYRAPWGAHKRGRTGRTTVDDAIDAVVEEARNYTPTPPPVSTVDAAIQTVVRGARRYAKMKRRRRRVARRHRRRPGTAAQRAAAALLNRARRTGRRAAMRAARRLAAGIVTVPPRSRRRAAAAAAAAISAMTQGRRGNVYWVRDSVSGLRVPVRTRPPRN
modifications: C-terminal HA tag; Human adenovirus 5
[1]
  Relocalization of endogenous HMGB1 in lung slices: sufficient to relocalize endogenous HMGB1
[2]
  HMGB1 in supernatants: reduced levels
[3]
  HMGB1 co-immunoprecipitation with protein VII: confirmed
[4]; 147 bp nucleosome core particle
  Protection from MNase digestion: completely blocks digestion; also recorded: protects against MNase digestion
[4]; 195 bp nucleosomes
  Nucleosome mobility on native gel electrophoresis: changed nucleosome mobility
  Point at which MNase digestion of nucleosomal DNA pauses: 165 bp

Reference: patent US20190276499A1, “Protein VII Fragments and Methods of Use Thereof for the Treatment of Inflammatory Disorders” (priority 2016, published 2019)
